The target in experiment [1] is T1, hu-M-IL1RAP construct, positions S21-T367 (extracellular domain of the membrane form of human IL1RAP) (human, UniProt Q9NPH3 21-367).
T1 construct: Biotinylated when captured on the Biacore chip
T1 sequence: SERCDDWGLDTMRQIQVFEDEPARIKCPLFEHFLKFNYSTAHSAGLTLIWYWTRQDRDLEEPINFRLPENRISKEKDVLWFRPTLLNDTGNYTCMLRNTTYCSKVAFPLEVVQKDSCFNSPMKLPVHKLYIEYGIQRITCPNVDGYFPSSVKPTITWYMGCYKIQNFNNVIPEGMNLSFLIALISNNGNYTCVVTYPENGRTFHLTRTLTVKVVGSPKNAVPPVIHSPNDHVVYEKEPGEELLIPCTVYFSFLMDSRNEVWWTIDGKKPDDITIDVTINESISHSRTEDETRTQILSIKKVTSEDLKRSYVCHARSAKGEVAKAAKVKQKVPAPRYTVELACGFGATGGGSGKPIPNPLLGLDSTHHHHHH
Put plainly: SPR, Fab analyte.
Method: Surface plasmon resonance (SPR) analysis was used to determine binding affinity for hu-M-IL1RAP of the purified Fabs containing the selected single, double, and triple mutations in either the VL or VH regions using a BIACORE™ 8K instrument. […] For kinetics measurements, 5 nM biotinylated hu-M-IL1RAP was captured at 10 μL/min to achieve ˜50 response units in the second flow cell (FC2). FC1 was kept as a reference. […] The sensorgrams were recorded and subjected to reference and buffer subtraction before data analysis with the BIACORE® 8K Evaluation Software (version 1.1.1.7442). Association rates (kₒₙ) and dissociation rates (koff) were calculated using a simple one-to-one Langmuir binding model. The equilibrium dissociation constant (KD) was calculated as the ratio of koff/kₒₙ.

Experiment [2] deals with T1, hu-M-IL1RAP construct, positions …. Put plainly: SPR, Fab analyte, 37 C.
Experiment [3] concerns the target T2, human IL1RAP (hu-IL1RAP) on human cells (human, UniProt Q9NPH3 21-570).
T2 sequence: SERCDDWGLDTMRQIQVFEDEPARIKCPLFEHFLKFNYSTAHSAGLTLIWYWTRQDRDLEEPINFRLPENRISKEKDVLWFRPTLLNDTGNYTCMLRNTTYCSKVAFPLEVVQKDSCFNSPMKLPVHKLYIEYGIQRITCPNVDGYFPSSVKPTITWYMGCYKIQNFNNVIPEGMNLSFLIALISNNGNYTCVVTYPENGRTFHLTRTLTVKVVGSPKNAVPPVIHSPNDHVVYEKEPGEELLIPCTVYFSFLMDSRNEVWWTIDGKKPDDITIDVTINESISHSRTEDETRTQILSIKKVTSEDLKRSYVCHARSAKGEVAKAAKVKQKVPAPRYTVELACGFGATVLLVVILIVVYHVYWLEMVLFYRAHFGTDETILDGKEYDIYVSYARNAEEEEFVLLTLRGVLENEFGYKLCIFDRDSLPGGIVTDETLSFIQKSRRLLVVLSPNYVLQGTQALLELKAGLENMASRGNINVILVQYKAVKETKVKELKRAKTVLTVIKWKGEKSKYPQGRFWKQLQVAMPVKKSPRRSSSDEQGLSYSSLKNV
The experiment in a line: cell-based or functional assay.

Experiment [4] addresses T1, hu-M-IL1RAP construct, positions …. Put plainly: SPR, Fab analyte, 25 C.
The target in experiment [5] is T2, human IL1RAP (hu-IL1RAP) on human cells. Put plainly: cell-based or functional assay. The source holds these as a separate data set.
The target is the same in experiment [6]. The experiment in a line: cell-based or functional assay. The source holds these as a separate data set.
The target of experiment [7] is T1, hu-M-IL1RAP construct, positions …. Put plainly: ELISA, hybridoma supernatant.
Method: (§1) After removing the coating solution, unspecific binding was blocked by adding 200 μL of assay/blocking solution containing 1% bovine serum albumin (BSA) in phosphate buffered saline (PBS) pH 7.4 (ELISA diluent) and incubation at room temperature for one hour with agitation or overnight at 4° C. without agitation. Plates were then washed three times with 300 μL of PBS, 0.05% TWEEN®-20 (wash buffer). 100 μL of culture supernatant from individual hybridoma clones (or purified antibodies at the indicated concentration) was added to individual wells followed by incubation at room temperature for one hour with agitation. […] The plate was incubated at room temperature for one hour with agitation, washed six times with wash buffer and developed for 3-10 minutes by adding 50 μL/well of tetramethylbenzidine (TMB) microwell peroxidase substrate (Scytek Laboratories, Inc., Logan, UT, USA; catalogue number TM1999).
In experiment [8] the target is T3, cyno-M-IL1RAP construct, positions S21-T367 (cynomolgus monkey, UniProt P59822 21-367 (rhesus entry)).
T3 construct: Biotinylated when captured on the Biacore chip; also called cy-M-IL1RAP
T3 sequence: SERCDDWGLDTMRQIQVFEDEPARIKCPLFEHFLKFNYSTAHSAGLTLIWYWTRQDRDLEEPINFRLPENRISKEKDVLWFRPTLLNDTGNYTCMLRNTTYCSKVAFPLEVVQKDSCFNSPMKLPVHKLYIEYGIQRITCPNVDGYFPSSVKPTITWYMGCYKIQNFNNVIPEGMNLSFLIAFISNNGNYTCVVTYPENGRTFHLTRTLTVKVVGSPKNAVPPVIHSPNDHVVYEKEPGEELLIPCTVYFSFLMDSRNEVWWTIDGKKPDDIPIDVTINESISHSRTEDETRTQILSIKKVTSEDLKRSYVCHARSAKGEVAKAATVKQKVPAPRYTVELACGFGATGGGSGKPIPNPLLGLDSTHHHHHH
The experiment in a line: ELISA, purified mAb.
Method: as §1

In experiment [9] the target is T4, mu-M-IL1RAP construct, positions S21-T367 (mouse, UniProt Q61730 21-367).
T4 construct: also called mo-M-IL1RAP; mouse-M-IL1RAP
T4 sequence: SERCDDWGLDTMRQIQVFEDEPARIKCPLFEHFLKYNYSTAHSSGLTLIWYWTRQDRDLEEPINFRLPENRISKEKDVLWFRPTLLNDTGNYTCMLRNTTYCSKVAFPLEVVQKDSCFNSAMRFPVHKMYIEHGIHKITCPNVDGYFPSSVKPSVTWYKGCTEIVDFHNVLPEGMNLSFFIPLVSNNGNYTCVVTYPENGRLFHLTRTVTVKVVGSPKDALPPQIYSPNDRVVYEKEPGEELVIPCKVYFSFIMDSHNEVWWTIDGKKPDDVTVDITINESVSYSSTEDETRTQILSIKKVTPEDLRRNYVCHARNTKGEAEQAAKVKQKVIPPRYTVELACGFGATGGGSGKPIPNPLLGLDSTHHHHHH
Put plainly: ELISA, purified mAb.
Method: as §1

Experiment [10] addresses T5, hu-S-IL1RAP construct, positions S21-Q356 (soluble human IL1RAP) (human, UniProt Q9NPH3 21-350).
T5 sequence: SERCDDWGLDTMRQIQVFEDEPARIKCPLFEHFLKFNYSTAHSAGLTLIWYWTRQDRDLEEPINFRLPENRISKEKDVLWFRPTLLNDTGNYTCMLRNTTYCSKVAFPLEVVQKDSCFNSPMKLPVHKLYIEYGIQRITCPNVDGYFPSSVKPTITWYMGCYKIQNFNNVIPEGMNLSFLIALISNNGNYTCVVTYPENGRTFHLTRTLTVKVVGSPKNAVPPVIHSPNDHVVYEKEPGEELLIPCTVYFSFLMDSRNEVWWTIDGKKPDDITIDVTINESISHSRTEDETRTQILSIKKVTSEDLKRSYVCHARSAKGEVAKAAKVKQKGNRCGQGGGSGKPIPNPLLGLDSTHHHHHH
Put plainly: ELISA, purified mAb.
Method: as §1

Experiment [11] addresses T1, hu-M-IL1RAP construct, positions …. Put plainly: ELISA, purified mAb.
Method: as §1
Experiment [12] shares this target. Put plainly: ELISA, mAb at 10 nM.
Method: as §1
(§2) Binding domain mapping: Binding domain mapping of the 15 purified antibodies was carried out using the above-described ELISA assay with the following IL1RAP polypeptide constructs coated at 1 μg/ml on the assay plates: hu-M-IL1RAP, hu-M-IL1RAP-D1, hu-M-IL1RAP-D1D2, and hu-M-IL1RAP-D3.
The target in experiment [13] is T6, hu-M-IL1RAP-D1D2 construct, positions S21-P237 (human).
T6 chain: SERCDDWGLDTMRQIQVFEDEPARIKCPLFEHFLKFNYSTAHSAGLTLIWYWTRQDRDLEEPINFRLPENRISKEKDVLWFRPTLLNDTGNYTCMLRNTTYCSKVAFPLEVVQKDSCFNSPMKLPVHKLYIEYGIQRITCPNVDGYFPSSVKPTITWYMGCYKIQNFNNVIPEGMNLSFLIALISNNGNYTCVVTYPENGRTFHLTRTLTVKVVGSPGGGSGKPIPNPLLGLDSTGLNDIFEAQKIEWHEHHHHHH
Put plainly: ELISA, mAb at 10 nM.
Method: as §1, §2

B1: K13 Fab (VL A51Y/W92I) (Fab, V domains shown)
VH: EVQLVESGGGLVQPGGSLRLSCAASGFTFSNYAMSWVRQAPGKGLEWVATVTEGGDYNYYLDDVKGRFTISRDNAKNSLYLQMNSLRAEDTAVYYCARDRWPYFFDYWGQGTLVTVSS
VL: DIQMTQSPSSLSASVGDRVTITCRASENIYSNLAWYQQKPGKSPKLLVYGYKNLADGVPSRFSGSGSGTDYTLTISSLQPEDFATYYCQHFITTPRTFGGGTKVEIK
notes: Fab with 8xHis tag
With B1, the “fold improvement of affinity over the parental Fab” value in [1] amounted to 9 fold. In addition, in experiment [2], the Kd stood at 0.0293 nM, the dissociation rate constant (koff) amounted to 0.000117 s⁻¹ and the kon was 4.01e+06 M⁻¹ s⁻¹. Moreover, in experiment [3], the “HEK-Blue, IL-1β, % inhibition at 100 nM (Fab)” value came to 100%; the “HEK-Blue, IL-1β, IC50 (Fab)” value was determined as 0.94 nM; the “HEK-Blue, IL-33, % inhibition at 100 nM (Fab)” value was found to be 98%; the “HEK-Blue, IL-33, IC50 (Fab)” value amounted to 3.17 nM. In experiment [3], the “HEK-Blue, IL-36α, % inhibition at 100 nM (Fab)” value stood at 100% and the “HEK-Blue, IL-36α, IC50 (Fab)” value came to 0.884 nM. Besides, in experiment [4], the affinity, expressed as Kd, was 0.00709 nM; the koff amounted to 4.36e-05 s⁻¹; the kon was 6.15e+06 M⁻¹ s⁻¹.

B2: 8H1 (purified mAb from hybridoma 8H1) (antibody, V domains shown)
VH: QVQLQQSGPELVKSGASVRISCKASGYAFSGSWMNWVKQRPGKGLEWIGRIYPGDGNTNYNGKFKDKATLTADKSSSTAFMQLSSLTSEDSAVYFCARDYYLFYFDYWGQGTTLTVSS
VL: NIVMTQTPKFLPVAAEDRVIITCKASQDVSNEVAWYQQKPGQSPKLLMYYASNRYTGVPDRFTGSGSGTDFTFTISSVQVEDLAVYFCQQHYSSPLTFGAGTKLELK
notes: Mouse hybridoma mAb
Turning to B2, the “HEK-Blue SEAP, IL-1β, % inhibition (supernatant)” value in experiment [5] was 45%. The “HEK-Blue SEAP, IL-33, % inhibition (supernatant)” value in experiment [5] was 26%. Besides, in [6], the “HEK-Blue, IL-1β, % inhibition at 100 nM” value is 64%. For the same molecule, the “HEK-Blue, IL-33, % inhibition at 100 nM” value in experiment [6] is 27%. The values for the A450 in experiment [7], in experiment [12] and in experiment [13] were 0.987 A450, 1.09 A450 and 0.602 A450, respectively. In addition, the concentration giving a half-maximal response (EC50) was found to be 0.257 nM in [8], 0.186 nM in [10] and 0.262 nM in [11]. The binding result in experiment [9] is “no binding (tested: 20 nM (highest tested))”.

The values are drawn from patent US20260015426A1 (23ANDME, published 2026).
